Blank lines part the entries; values can stand above or below the molecule they belong to.
Columns and labels:
Experiment in all cases: cell-based or functional assay
[1] = target: FcRI (CD64), high affinity immunoglobulin gamma Fc receptor I, on human monocytes (human) (UniProt P12314)
[2] = target: Interleukin-10 (IL-10) released by human monocytes (human) (UniProt P22301)
[3] = target: anti-MBP (105-120) monoclonal IgM Mab 1, clone DM1A2C1

UniProt P12314, sequence (P12314 16-374 limits assumed, form in doubt): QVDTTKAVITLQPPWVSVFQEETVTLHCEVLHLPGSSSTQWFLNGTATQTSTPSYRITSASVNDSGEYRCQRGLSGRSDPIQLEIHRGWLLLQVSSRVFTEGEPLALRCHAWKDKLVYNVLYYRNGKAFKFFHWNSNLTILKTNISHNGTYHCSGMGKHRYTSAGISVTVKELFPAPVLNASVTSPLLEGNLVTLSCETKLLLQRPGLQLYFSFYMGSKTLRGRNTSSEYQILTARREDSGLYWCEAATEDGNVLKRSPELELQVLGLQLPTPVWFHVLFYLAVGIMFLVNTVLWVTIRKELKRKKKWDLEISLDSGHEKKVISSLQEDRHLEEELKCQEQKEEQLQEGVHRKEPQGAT
UniProt P22301, sequence (P22301 19-178 limits assumed): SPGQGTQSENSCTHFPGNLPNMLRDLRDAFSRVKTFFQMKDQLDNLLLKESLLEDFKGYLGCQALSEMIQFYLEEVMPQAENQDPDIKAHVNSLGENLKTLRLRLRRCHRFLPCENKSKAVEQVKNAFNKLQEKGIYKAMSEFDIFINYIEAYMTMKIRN

% inhibition of proliferation of human MBP+-T cells (T + PBM + Mab CD64) [1]: 100%
% inhibition of proliferation of human MBP+-T line (T + PBM + Mab CD64) [1]: 98%
Levels of IL-10 in the supernatants of human monocytes (MNC + Mab CD64) [1]: 3950 pg/mL
Levels of IL-10 in the supernatants of human monocytes activated with LPS (MNC + LPS + Mab CD64) [1]: 6360 pg/mL
Molecule: mouse monoclonal antibody anti-human CD64, IgG1 (Ancell)

% inhibition of proliferation of human MBP+-T line by Mab 1 in the presence of Mab IL-10 (T + PBM + Mab 1 + Mab IL-10) [2]: 0%
% inhibition of proliferation of human MBP+-T line by Mab CD64 in the presence of Mab IL-10 (T + PBM + Mab CD64 + Mab IL-10) [2]: 0%
Molecule: neutralising monoclonal antibody anti-human IL-10 (R&D Systems)

% inhibition of proliferation of human MBP+-T cells by Mab 1 in the presence of pep 1 (T + PBM + Mab 1 + pep 1) [3]: 0%
Molecule: GLQLYFS [peptide 222-228 CD64 (GLQLYFS)]

% inhibition of proliferation of human MBP+-T cells by Mab 1 in the presence of pep 2 (T + PBM + Mab 1 + pep 2) [3]: 98%
Molecule: QFLGSYL [“scrambled” peptide (QFLGSYL Seq ID no 5)]
